In the DeepSol protein solubility set:

Assay: soluble on expression in E. coli; label from the status in PepcDB or PDB records

Sequence	soluble on expression in E. coli
MGSDKIHHHHHHMSFKSSIAKMAGKSSYWFLHTFRSGGSSLPGKITTKIDPTILKDLGKDYDVIVITGTNGKTLTTALTVKVLRQKFDHVLTNPTGSNMEQGIVTTFLTDHKSKNGKNIAILEVDEANVIKVTQYIKPLAFVFTNIFRDQMDRYGEIYTTYRKILDGVKLAPEATIIANGDMPIFNSVDLPNPVVYYGFNNQPDGEMKADPNTDGVVCPRCEHIIHYKFISYSNQGKYYCPNCGWERPELTYQLTQITKLTPNLSKFFIDASNFTLHIGGLYNVYNALAAYSVGKFMGVPTSSIQKALNDPDERVFGRQEQINVDGKEITIVLVKNPVGLNQVIDMVGTESEPFSFVGLLNANYADGIDTSWIWDGNFEKLTQMPIQQYMTGGERYKDITFRLKVAGIEDNQLWTYDNLKDAVSNIKNLPTKRVYVFATYTAMLQLRKQLATEGYIKEGI	not soluble
MNIQCKRVYDPAEQSDGYRILVDRLWPRGIKKTDLALDEWDKEITPSTELRKAFHGEVVDYATFREQYLAELAQHEQEGKRLADIAKKQPLTLLYSAKNTTQNHALVLADWLRSL	soluble
MGSDKIHHHHHHMRAEIRNLNVKGGHYYLELAEKDADTDKVIASCKATIWKFSASKIVLKFERETGIELASDLNVLIKIRARFDPQYGFSVNIEEIDSSFTLGEIAKRYQQIVERLTQEGLIHKNKLLPTPFDIQNVLVIAPQNAAGLGDFKKDADALERNGVCHFVYQSATFQGNTAAVSLMESLATGLKQWANNFNFPPDLIVIIRGGGAVNDLAYLNDYELAALLCKRSVPIWVGIGHEKDRTILDEIAHRSFDTPSKVIAGIRNHIVERVQEAVDNLQTIKLLSQHQITTYQSKSDQYLQHIKSSAQAQLNSAHQFLEQIKERIQFVSQQQVKFSLSQTESLMREILLQNPKQIQAKGYAIVRSEGKAIRSIHQITNSTITVDMQDGAINANITEVIPNE	not soluble
MGTRSPHIVLRNATYLNSYIREWMQANIWIYDDRIIYVGEKLPEQLHECEVIDCDGKYVVPSYIEPHAHPYQLYNPETLANHAMQFGTTTFINDNLEHHHHHH	soluble
KSIHDAGQRVQIYFSDAAGLVAGRTTIRYQGLEVGMVRDINLSEDLGSIYVDADIYPEATKLLNDKTRFWLVKPTASLTGVSGLDALVSGNYISIQPGDGQEFETTFHALDSAPTDLRVSQGLNIKLKSRDLGGVSIGSQIVYKKIPIGAVYSYQLDEDAKSITIQANIQEQYRHIINDRSRFWNVSGIGASIGFEGVDVRLESMSALLGGAIAVDSPDDGEPVEENTEFRLYKDLKTAGRGIAIKIALPDDNKVSSEGAPIMYRGIEIGQVTDLSLSEGREVILASAAIQPAFSDMLTTGTRFVLEEAKVSLSGVENIANLVRGNFLTIVPGDGERSRRFTAIRKNVFNQQQEKSIAIRLISDNSFGLDSGAN	not soluble
MSLKITGFRSLTTVHRWGRPVGDANGFVAQGVTEVPVLLVETDGGLTGVGLGAHGDAERVFPALDGQDPRAVTTLYDRMLAHTFKSGHAGTAFGTIGAFDTALWDLKAKMAGEPLWRTLGAADRFVPGYASGLDIALDEEELVALYSGWAARGFTGAKLKGGLDTERDIGRLRAVAEVLRPNTRSPALMLDVNESWGRHQAVRLLARIEDRVELAWIEEPVRRWDARGHRAVGRAGRTAVASGENLTGLEQFRPLLAADALQVVQAAGVWGITHFLRVATLAHGHDLPVSPVGYHANPLAHAAAAVPNHLVTEVQDIGTPAGLTVDQAIEDGGIVLGDAPGLGITVDESALAAPRQNAGWARPDGPHVRPRDAGLRLVPEPGPPGPAARVRAGTPSLGVPGPVHRPARSEHTERENTPEGHHHHHH	not soluble
MSLTVNNEISKAFSKHADDYERVAKVQKEIGSRLFERLQYLKIAPRRILDLGCGPGFFSKELALLYPKAQIVGMDLSFAMLEQARKKQGWRRKWPLVSADMQKMPFATGAFDLVFANQVIHWSSSLGMVFRELNRVMNVNGCLMFTTLGPDTFKELQTAWSAANQYAHVNEFVDMHDIGDCLIAEHFMDPVIDMELLSIHYETLPQLLLALKTQGVRNINPKRNHGLTGKSAWKQFEAQYATMRTTTGKYPLTYEVVYGQAWKGAQRKMEQGEGHHHHHH	not soluble
MKFFSAAAFVAALVASGNACIGGGAGGAGGCCPPAQPGCGNPCQGAGPQYAAAPPPPPQYAAAPQGGAYPTAGK	not soluble
QVQSVEVMRDSYGVPHVFADSHYGLYYGYGYAVAQDRLFQMDMARRSFVGTTAAVLGPGEQDAYVKYDMQVRQNFTPASIQRQIAALSKDERDIFRGYADGYNAYLEQVRRRPELLPKEYVDFDFQPEPLTDFDVVMIWVGSMANRFSDTNLEVTALAMRQSLEKQHGPERGRALFDELLWINDTTAPTTVPAPAA	soluble
SGERDQSSDTDQERKGGKHPYSSHYSSDFGSSPQSSGPSSPVNTPPCASNREKNPKRHLSDHHVRHQTVRKVSPKAIPNKKGVRVGFRSQSLNREPLRKDPDIVTKRVLSARLLKITELQNEVSELQVKLAQLLKENKALKSLQYRQEKALSKFEDAENEISQLIHRHNGEITALKERLRKSQEKERMAEKRVKDTEGELFRTKFSLQKLKKISEARHLPERDDLAKKLVSAELKLDNTEKD	not soluble
MSLSYTEEWVTARARGAYEHGRASFDVRPERTALLVIDMQDEFVRPGWSPYWVPAATRMAPRLRRLIEGCRSAAVPVIWSIFDDTHLGLDRPKALGYLPHADTDWRRPGPAEVWDQMGRRPDEALIRKPSYGAFYDTPLDTMLRNLGRDTVIVTGTLTNYCCGTTARQAYERGYKVVFGADVTATDDESRQEPELAVLRKGFALVLTAEEITNQLAEGHHHHHH	soluble
MKKVYFNHDGGVDDLVSLFLLLQMDNVELTGVSVIPADCYLEPAMSASRKIIDRFGKNTIEVAASNSRGKNPFPKDWRMHAFYVDALPILNESGKVVTHVAAKPAHHHLIETLLQTEEKTTLLFTGPLTDLARALYEAPIIENKIKRLVWMGGTFRTAGNVHEPEHDGTAEWNSFWDPEAVARVWEANIEIDLITLESTNQVPLTIDIREQWAKERKYIGIDFLGQCYAIVPPLVHFAKNSTYYLWDVLTAAFVGKADLAKVQTINSIVHTYGPSQGRTVETDDGRPVHVVYDVNHDRFFDYITRLAKKVST	soluble
MNHAQSLYPLIERALLCPVLEDKLALAERLHRDWRAGMLARLASPAPYPLPEPGRPERPELVHPARVPKRSLSTRRGHGALLHAIAHIEFNAVNLALDAAWRFRDMPDEFVDDWLKVAAEEAGHFRLLQGRLAELGFSYGDFPAHDGLWAMCRKTDRDAMVRMALVPRVLEARGLDVTPGIQRRLAGIGDHASVAVLDVILRDEVGHVLIGNRWFVRLCRERGLEPQATFRGLLEQHAMQLHPGDYNLDARAAAGFFADELEALARLTESVSDGRLEHHHHHH	soluble
MVKSAVLGFPRIGKNRELKKATEAYWSGKTSAEELLATAKQLRLEHWKLQKAQGVDIIPSNDFSLYDQIMDHSFSFNVIPPRYRLSGLSSLDTYFAMGRGMQRAATADKAAVDVPAGEMVKWFDSNYHFLRPEVSEETDFKLSSTKALDEFLEAKEAGIITRPVLVGPVTYLFIAKAAKGSSIKPIELLPKLLPVYVELIKKLTEAGAEYIQIDEPILTLDLPQEILASYKEAYETLGKIGKLILTTYFGSLQSNADVLKGLPIAGVHVDVVRAPENLDRALAVLGENQIISVGVVSGRNIWKTDFQKATAIIEKAISAVGSERVQVASSSSILHIPHSLSGEDQINPEIKRWFAFAVEKCAELAILTKAANDGPASVRAELEANAADCKARAESPITNVEAVRERQSKVTPQMHERKSPFETRYAKQQASLKLPLFPTTTIGSFPQTKEIRVTRNRFAKGLISQEEYDAFIRKEISDVVKFQEEVGLDVLVHGEPERNDMVQYFGERMEGFVFTVNGWVQSYGSRCVRPPIIVGDVYRPAPMTVKESQYAQSITSKPMKGMLTAPITILRWSFPRDDVHDSVQAQQIALGLRDEVLDLEKAGIKVIQCDEPALREGLPLRRAEWDEYLKWAIDAFRLATAAVQDDTQIHSHFCYSDFNDIFDAIQRLDADVVSIENSKSDMKLLNVLSRYTSCIGPGLFDIHSPRVPPVSEFKERIDAIVKHVPKDHLWLNPDCGLKTRGWPETTADLKNMIAAAREAREQYA	soluble
RLFGDNVVALAGDAGFRTYWLSNQARLGRYDTPVTAMANMAHFKTWADAPYDEALLPLLDAALAEPGRKVVFLHINGNHDNYCTRYPETATVYQGGAPYEDCYDNSIRYVDALLGAVMDRLGERRASLLFYPDHGLERHESVLGTFYHGGVRPSREAFDIPMFIWNSPAAPAPARREYDAPYSTEDNYGLILDWLG	not soluble
MLLKRRLFIAASLFAMHLSPALAADAVSFAPQPPAIDAGAWVLMDYTTGQVLTAGNEHQQRNPASLTKLMTGYVVDRAIDSHRISPDDIVTVGRDAWAKDNPVFVGSSLMFLKEGDRVSVRDLSRGLIVDSGNDACVALADYIAGGQPQFVAMMNSYVKKLNLQDTHFETVHGLDAPGQHSSAYDLAVLSRAIIHGEPEFYHMYSEKSLTWNGITQQNRNGLLWDKTMHIDGLKTGHTSGAGFNLIASAVDGQRRLIAVVMGAKSSKGREEQARKLLQWGQQNFATVQILHSGKKVGSERIWYGDKEKIALGTEQDFWMALPKAEIPHIKAKYVLDRKELEAPIAAHQQVGEIELYDRDKLIAQWPLVTLESVGKGGMFSRLSDYFQHKA	not soluble
MPTPLTHWSRWMQTASRFVDEYPNFSVLPPPPLRAPPPHSKISDRRSV	not soluble
QLHLSLPSDTQASYSSTQRKQAEIMAEGFGPGINSPFLVVADAHSVDENAEILEPLIRAQNPAPGERKQAAANAAYQYIIQKYSVTPDVKHVQIVGLSKDGLAAQLLLTPESSPEDDVTKQLIDALLIKQDEVNNATGIRSGITGLIPVQQDVTNR	not soluble
METVQDCENKLPPSLKSRLCEIRRYEIIEGPEMDKHIHCVMRALDFVYEDGRGDYHKLYDPLNIIELDKRHDVNLEKCIGECVQVPTSERAHVFYKCLLKSTTGRTFKKVFDLMELKKAGKVPQHQRYTAEFVQIMKDYDKALNC	soluble
MGSDKIHHHHHHMDKAGKETPFWVQKTLAQLNAHEWEALCDRCGLCCLVKAEDEEAGDIYLTSLICPFFDLKTKVCSCYSQRKQQNPDCSTLTPMTVQTYDWLPDHCAYRLVAAGKPLPTWHPLISGRHDTVVNVMNYFKGVKIRHLQPHSDLEDYLILDPPEG	not soluble
MGSDKIHHHHHHMKLDINICNNIKSIRTRLGMSQQDLANIAGVTRQTISGVESGQYAPSVAITLRLAKALGCQVENLFWLEDDLPEIEAVLAKPVPTGQQLRVSLAKVGGQWIAYPLVGKEAFRMEMIPADGRAESQTHTNKVQVRLLDDLDKLQNTVVIAGCTPVISFLARATERWHPQLRVHYHFANSMAALRSLNRGEVHIAGMHLYDPQTGEHNIPFAREALDGRSAVLITLGIWEEGLVVAPGNPMEIKSLSDLVELEATIINREPGSGSRMLLERKLKEEKVSANTIKGYEHIVHSHQDVALSIAAGIADAGVSTASVAAAFGLGFIPLHQARYDLVILKEYLEEAPVQQFLSILGHRLVQSQLEVLGGYDISDIGEVVATI	not soluble
SAKTDKLAQFLDSGIYESDEFNWFFLDTVRITNRSYTRFKVSPSAYYSRFFNSKQLNQHSSESNPKKRKRKQKNSSFHLPSVGEQASNLRHQEARLFLSKAHESFLKEIELLSLTKGLSDDNDDDDSSLLNKCCDDEVSFIELGGVWQAPFYEITLSFNLHCDNEGESCNEQRVFQVFNNLVVNEIGEEVEAEFSNRRYIMPRNSCFYMSDLHHIRNLVPEKISHYHIGRRCNSLIDVIYAAKSEEGYNLIVIDPPWENASAHQKSKYPTLPNQYFLSLPIKQLAHAEGALVALWVTNREKLLSFVEKELFPAWGIKYVATMYWLKVKPDGTLICDLDLVHHKPYEYLLLGYHFTELAGSEKRSDFKLLDKNQIIMSIPGDFSRKPPIGDILLKHTPGSQPARCLELFAREMAAGWTSWGNEPLHFQDSRYFLKV	soluble
